Assays:
[1] = target: T1, Human cytosolic glutamyl-prolyl-tRNA synthetase (human, UniProt P07814 1-1512); assay: pull-down; in vitro assembly of the MSC as in a2 but lacking IRS; anti-Flag beads on MRS-Flag; settings: both partners purified
T1 construct: human cytosolic EPRS, gene cloned from the cDNA of HEK293 cells; also called EPRS; source: recombinant from a modified pET28b, purified (Ni-NTA, gel filtration)

[2] = target: T2, Human cytosolic isoleucyl-tRNA synthetase (human, UniProt P41252 1-1262); assay: pull-down; in vitro assembly of the MSC as in a2 but lacking hcLRS; anti-Flag beads on MRS-Flag; settings: both partners purified
T2 construct: human cytosolic isoleucyl-tRNA synthetase (IRS), gene cloned from the cDNA of HEK293 cells; also called IRS; source: recombinant from a modified pET28b, purified (Ni-NTA, gel filtration)
T2 sequence (looked up): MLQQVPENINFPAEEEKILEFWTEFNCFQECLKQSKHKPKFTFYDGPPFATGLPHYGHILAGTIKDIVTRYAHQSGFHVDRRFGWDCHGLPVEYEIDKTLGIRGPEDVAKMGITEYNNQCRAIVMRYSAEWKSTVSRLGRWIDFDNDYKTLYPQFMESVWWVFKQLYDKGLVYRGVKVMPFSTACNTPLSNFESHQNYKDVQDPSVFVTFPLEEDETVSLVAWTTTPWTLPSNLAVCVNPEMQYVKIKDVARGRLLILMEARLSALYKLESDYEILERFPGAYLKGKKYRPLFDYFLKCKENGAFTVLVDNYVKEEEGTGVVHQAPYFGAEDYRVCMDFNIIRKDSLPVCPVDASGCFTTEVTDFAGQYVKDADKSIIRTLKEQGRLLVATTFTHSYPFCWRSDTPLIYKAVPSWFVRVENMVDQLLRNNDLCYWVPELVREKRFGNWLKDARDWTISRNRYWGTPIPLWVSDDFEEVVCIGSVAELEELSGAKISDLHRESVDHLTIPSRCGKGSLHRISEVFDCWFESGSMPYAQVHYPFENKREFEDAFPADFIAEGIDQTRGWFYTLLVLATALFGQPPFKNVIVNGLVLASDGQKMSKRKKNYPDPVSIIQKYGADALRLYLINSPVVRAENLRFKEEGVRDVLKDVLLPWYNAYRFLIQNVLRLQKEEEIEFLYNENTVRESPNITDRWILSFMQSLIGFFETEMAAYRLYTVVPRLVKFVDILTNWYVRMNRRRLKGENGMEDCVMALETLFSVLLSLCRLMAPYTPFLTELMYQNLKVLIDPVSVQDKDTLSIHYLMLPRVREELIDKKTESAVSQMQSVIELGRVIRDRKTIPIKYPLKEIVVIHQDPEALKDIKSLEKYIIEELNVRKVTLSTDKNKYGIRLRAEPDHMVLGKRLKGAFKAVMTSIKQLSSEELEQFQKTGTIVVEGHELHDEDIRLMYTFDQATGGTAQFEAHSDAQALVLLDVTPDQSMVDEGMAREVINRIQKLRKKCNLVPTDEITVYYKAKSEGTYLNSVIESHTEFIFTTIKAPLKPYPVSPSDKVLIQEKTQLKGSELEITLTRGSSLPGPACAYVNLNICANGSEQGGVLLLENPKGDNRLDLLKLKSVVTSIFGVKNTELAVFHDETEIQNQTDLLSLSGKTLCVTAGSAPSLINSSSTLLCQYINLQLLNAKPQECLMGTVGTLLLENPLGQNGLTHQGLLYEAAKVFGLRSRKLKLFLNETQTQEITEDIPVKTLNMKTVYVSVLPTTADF

T1 sequence (P07814 whole entry): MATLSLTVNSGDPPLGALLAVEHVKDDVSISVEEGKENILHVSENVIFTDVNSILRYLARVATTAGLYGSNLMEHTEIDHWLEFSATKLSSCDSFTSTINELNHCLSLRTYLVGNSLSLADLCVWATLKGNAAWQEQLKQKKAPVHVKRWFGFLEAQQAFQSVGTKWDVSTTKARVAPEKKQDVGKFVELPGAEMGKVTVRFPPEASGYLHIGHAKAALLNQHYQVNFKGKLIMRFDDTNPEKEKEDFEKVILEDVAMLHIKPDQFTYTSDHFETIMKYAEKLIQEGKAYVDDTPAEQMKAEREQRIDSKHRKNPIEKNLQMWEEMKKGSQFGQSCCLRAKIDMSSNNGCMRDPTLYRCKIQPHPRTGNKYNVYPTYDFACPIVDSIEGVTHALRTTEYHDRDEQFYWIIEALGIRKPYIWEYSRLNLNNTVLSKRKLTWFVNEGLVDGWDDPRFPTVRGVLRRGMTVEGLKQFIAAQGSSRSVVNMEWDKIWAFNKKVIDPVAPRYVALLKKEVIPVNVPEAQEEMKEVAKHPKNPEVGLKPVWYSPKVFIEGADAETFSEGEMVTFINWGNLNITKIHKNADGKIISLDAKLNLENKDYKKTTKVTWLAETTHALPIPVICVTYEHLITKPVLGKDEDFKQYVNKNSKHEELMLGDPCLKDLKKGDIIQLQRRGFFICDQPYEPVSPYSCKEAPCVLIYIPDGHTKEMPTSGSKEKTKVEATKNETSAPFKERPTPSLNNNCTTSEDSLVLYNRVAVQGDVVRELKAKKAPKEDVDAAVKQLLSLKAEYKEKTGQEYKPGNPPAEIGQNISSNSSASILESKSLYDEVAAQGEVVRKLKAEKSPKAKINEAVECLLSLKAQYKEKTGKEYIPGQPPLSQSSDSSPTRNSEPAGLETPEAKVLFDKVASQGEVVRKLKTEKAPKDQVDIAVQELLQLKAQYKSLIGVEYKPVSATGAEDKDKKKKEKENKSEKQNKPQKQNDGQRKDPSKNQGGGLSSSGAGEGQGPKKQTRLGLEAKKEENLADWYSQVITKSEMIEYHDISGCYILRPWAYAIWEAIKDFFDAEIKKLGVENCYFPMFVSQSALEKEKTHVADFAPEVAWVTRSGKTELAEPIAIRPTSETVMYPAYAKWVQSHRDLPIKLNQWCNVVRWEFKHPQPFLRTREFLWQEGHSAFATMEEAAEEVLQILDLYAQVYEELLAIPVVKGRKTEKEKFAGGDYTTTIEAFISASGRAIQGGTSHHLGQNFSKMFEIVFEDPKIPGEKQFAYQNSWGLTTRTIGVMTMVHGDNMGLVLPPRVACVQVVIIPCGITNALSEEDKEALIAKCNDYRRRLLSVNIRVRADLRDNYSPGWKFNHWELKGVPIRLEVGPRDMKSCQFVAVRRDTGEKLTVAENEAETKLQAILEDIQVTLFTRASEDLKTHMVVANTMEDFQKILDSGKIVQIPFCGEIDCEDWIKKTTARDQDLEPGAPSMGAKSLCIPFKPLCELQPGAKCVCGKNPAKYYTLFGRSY

B1: MRS-AIMP3 complex (human cytosolic methionyl-tRNA synthetase co-expressed with AIMP3) (complex)
chain 1: MRLFVSDGVPGCLPVLAAAGRARGRAEVLISTVGPEDCVVPFLTRPKVPVLQLDSGNYLFSTSAICRYFFLLSGWEQDDLTNQWLEWEATELQPALSAALYYLVVQGKKGEDVLGSVRRALTHIDHSLSRQNCPFLAGETESLADIVLWGALYPLLQDPAYLPEELSALHSWFQTLSTQEPCQRAAETVLKQQGVLALRPYLQKQPQPSPAEGRAVTNEPEEEELATLSEEEIAMAVTAWEKGLESLPPLRPQQNPVLPVAGERNVLITSALPYVNNVPHLGNIIGCVLSADVFARYSRLRQWNTLYLCGTDEYGTATETKALEEGLTPQEICDKYHIIHADIYRWFNISFDIFGRTTTPQQTKITQDIFQQLLKRGFVLQDTVEQLRCEHCARFLADRFVEGVCPFCGYEEARGDQCDKCGKLINAVELKKPQCKVCRSCPVVQSSQHLFLDLPKLEKRLEEWLGRTLPGSDWTPNAQFITRSWLRDGLKPRCITRDLKWGTPVPLEGFEDKVFYVWFDATIGYLSITANYTDQWERWWKNPEQVDLYQFMAKDNVPFHSLVFPCSALGAEDNYTLVSHLIATEYLNYEDGKFSKSRGVGVFGDMAQDTGIPADIWRFYLLYIRPEGQDSAFSWTDLLLKNNSELLNNLGNFINRAGMFVSKFFGGYVPEMVLTPDDQRLLAHVTLELQHYHQLLEKVRIRDALRSILTISRHGNQYIQVNEPWKRIKGSEADRQRAGTVTGLAVNIAALLSVMLQPYMPTVSATIQAQLQLPPPACSILLTNFLCTLPAGHQIGTVSPLFQKLENDQIESLRQRFGGGQAKTSPKPAVVETVTTAKPQQIQALMDEVTKQGNIVRELKAQKADKNEVAAEVAKLLDLKKQLAVAEGKPPEAPKGKKKK
chain 2: MAAAAELSLLEKSLGLSKGNKYSAQGERQIPVLQTNNGPSLTGLTTIAAHLVKQANKEYLLGSTAEEKAIVQQWLEYRVTQVDGHSSKNDIHTLLKDLNSYLEDKVYLTGYNFTLADILLYYGLHRFIVDLTVQEKEKYLNVSRWFCHIQHYPGIRQHLSSVVFIKNRLYTNSH
notes: human cytosolic methionyl-tRNA synthetase (MRS), gene cloned from the cDNA of HEK293 cells; Only MRS carries the Flag tag; It is the bait of the anti-Flag pull-down of the assembled MSC; source: co-expressed from a modified pETDuet-1, purified (Ni-NTA, gel filtration); not shown: Flag, C-terminal, kept
**Q.** Which results are given for B1?
**A.** binding result [1]: binds; binding result [2]: binds

Reference: publication PMC7229842, “Molecular basis of the multifaceted functions of human leucyl-tRNA synthetase in protein synthesis and beyond” (Nucleic Acids Research, 2020)
